The source of these data is paper PMC3968025, “Metabolic and Target-Site Mechanisms Combine to Confer Strong DDT Resistance in Anopheles gambiae” (PLoS ONE, 2014).

The data set deals with the molecule itself. Put plainly: crystal structure; ZAN/U:GSH crystals, hanging drops at 22°C, 30% PEG 6000, 0.1 M Bis-Tris pH 6.5, 1 mM β-ME; soaked with DDE (not seen in the maps); 2.3 Å; two biological dimers in the asymmetric unit.

As usually defined, the stoichiometry N is a count of units in the complex or per binding partner.

B1: GSTE2 ZAN/U variant (epsilon-class glutathione-S-transferase GSTE2 of Anopheles gambiae, allele ZAN/U 1C) (enzyme, UniProt Q7PVS6 1-221, looked up)
chain: MSNLVLYTLHLSPPCRAVELTAKALGLELEQKTINLLTGDHLKPEFVKLNPQHTIPVLDDNGTIITESHAIMIYLVTKYGKDDSLYPKDPVKQARVNSALHFESGVLFARMRFTFERILFFGKSDIPEDRVEYVQKSYELLEDTLVDDFVAGPTMTIADFSCISTISSIMGVVPLEQSKHPRIYAWIDRLKQLPYYEEANGGGGTDLGKFVLAKKEENAKA
notes: Cloned from full-length cDNA; the model runs to Ala221; One of GenBank JX840597-JX840599; Crystallised as the complex with glutathione (GSH, 1:1.2 molar ratio); biological dimer; Natural allelic variant; I114T is written against the Kisumu (ancestral) allele; also called Gste2-114T; ZAN/U:GSH; not shown: His6, N-terminal, cleaved; SUMO, N-terminal, cleaved
Regarding B1, the “stoichiometry N” value is 2.
